Experimental data published in PMC10480500, “Cryo-EM structure of a bacteriophage M13 mini variant” (Nature Communications, 2023).

B1: minor coat protein pVII (natural protein, bacteriophage M13, UniProt P69535 1-33, looked up)
chain: MEQVADFDTIYQAMIQISVVLCFALGIIAGGQR
notes: Minor coat protein pVII of bacteriophage M13 (encoded by helper phage M13KO7); 33 residues, no signal peptide; residues 1-4 not built in the model; 5 copies in the particle (layer 1); source: E. coli TG1 with pUC19-minigenome, infected with helper phage M13KO7; in the mini phage purified from the supernatant (cobalt resin, sucrose density gradient)

Key:
[1] = molecular target: the molecule itself; assay: cryo-EM structure; purified M13 mini phage particle (assembled in E. coli TG1 with helper phage M13KO7), 0.6-0.8 mg/ml; whole particle 3.5 Å with 5-fold symmetry; top, middle and bottom segments refined separately at 3.5, 3.1 and 3.3 Å
minor coat protein pVII = molecular target: B1; assay: as above; conditions: both partners purified

## B1
[1]
  stoichiometry N: 5

B2: minor coat protein pVI (natural protein, bacteriophage M13, UniProt P69532 1-112, looked up)
chain: MPVLLGIPLLLRFLGFLLVTLFGYLLTFLKKGFGKIAIAISLFLALIIGLNSILVGYLSDISAQLPSDFVQGVQLILPSNALPCFYVILSVKAAIFIFDVKQKIVSYLDWDK
notes: 112 amino acids, no post-translational processing reported; residues 1 and 111-112 not built in the model; 5 copies in the particle; source: E. coli TG1 with pUC19-minigenome, infected with helper phage M13KO7; in the mini phage purified from the supernatant (cobalt resin, sucrose density gradient)
[1]
  stoichiometry N: 5

B3: minor coat protein pIX (natural protein, bacteriophage M13, UniProt P69538 1-32, looked up)
chain: MSVLVYSFASFVLGWCLRSGITYFTRLMETSS
notes: Minor coat protein pIX of bacteriophage M13 (encoded by helper phage M13KO7); 32 residues, no signal peptide; 5 copies in the particle (layer 2); source: E. coli TG1 with pUC19-minigenome, infected with helper phage M13KO7; in the mini phage purified from the supernatant (cobalt resin, sucrose density gradient)
Minor coat protein pVII
  binding result: binds
